Laboratory results: paper PMC6093203 (Journal of the American Chemical Society, 2018)

Biological target: non-phosphorylated PTEN (n-PTEN)
Experiment: fluorescence polarisation

B1: F-HECT-WWP2 (domain or fragment)
chain: KPYDLRRRLYIIMRGEEGLDYGGIAREWFFLLSHEVLNPMYCLFEYAGKNNYCLQINPASSINPDHLTYFRFIGRFIAMALYHGKFIDTGFTLPFYKRMLNKRPTLKDLESIDPEFYNSIVWIKENNLEECGLELYFIQDMEILGKVTTHELKEGGESIRVTEENKEEYIMLLTDWRFTRGVEEQTKAFLDGFNEVAPLEWLRYFDEKELELMLCGMQEIDMSDWQKSTIYRHYTKNSKQIQWFWQVVKEMDNEKRIRLLQFVTGTCRLPVGGFAELIGSNGPQKFCIDKVGKETWLPRSHTCFNRLDLPPYKSYEQLREKLLYAIEETEGFGQE
modifications: fluorescein on the N-terminal Cys
  Kd: 120 µM
